# Results published in publication PMC526180, “Conservation and Evolution of Cis-Regulatory Systems in Ascomycete Fungi”.
# T1: Sc_Rpn4p (Saccharomyces cerevisiae S288C, UniProt Q03465 2-531)
# T1 sequence: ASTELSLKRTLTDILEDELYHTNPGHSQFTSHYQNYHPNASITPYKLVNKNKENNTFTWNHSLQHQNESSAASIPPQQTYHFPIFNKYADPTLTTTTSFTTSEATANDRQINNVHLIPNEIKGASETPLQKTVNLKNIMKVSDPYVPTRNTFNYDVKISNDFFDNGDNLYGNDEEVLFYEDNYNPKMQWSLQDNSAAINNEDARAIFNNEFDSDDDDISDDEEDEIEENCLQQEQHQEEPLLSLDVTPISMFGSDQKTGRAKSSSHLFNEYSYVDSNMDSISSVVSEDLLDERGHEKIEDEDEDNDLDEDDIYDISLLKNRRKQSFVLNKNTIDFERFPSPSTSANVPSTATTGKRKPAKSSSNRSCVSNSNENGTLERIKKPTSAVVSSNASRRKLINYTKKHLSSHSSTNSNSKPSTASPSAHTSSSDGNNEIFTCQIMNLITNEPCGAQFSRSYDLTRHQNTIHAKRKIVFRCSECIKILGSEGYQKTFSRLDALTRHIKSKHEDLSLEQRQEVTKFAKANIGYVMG
# B1: Sequence A (dsDNA)
# DNA 1: GCGTGCCAGATAATCGGTGGCAAAACGGAAGAAAAAGTGA
# DNA 2: TCACTTTTTCTTCCGTTTTGCCACCGATTATCTGGCACGC
# B2: Sequence D competitor (dsDNA)
# DNA 1: CCAGATAATCGGTGGCAAAACGGAAGAAAA
# DNA 2: TTTTCTTCCGTTTTGCCACCGATTATCTGG
# B3: Sequence I (dsDNA)
# DNA 1: ACTTGTTCCCGCTCGCTGGAGCTCCTCCAACGACACGGGC
# DNA 2: GCCCGTGTCGTTGGAGGAGCTCCAGCGAGCGGGAACAAGT
# B4: Sequence G competitor (dsDNA)
# DNA 1: CCAGATAATCCTGCATTTGGCGGAAGAAAA
# DNA 2: TTTTCTTCCGCCAAATGCAGGATTATCTGG
# How the values were obtained:
# Details in all cases: protein: recombinant; blunt
# [1] = biological target: T1, Sc_Rpn4p; test: SPR; 50 nM protein; Biacore 3000 SA chip; HBS: 10 mM HEPES pH 7.4, 150 mM NaCl, 3 mM EDTA, 0.005% P20; room temperature; 10 ul/min, 90 s injection; competitors preincubated 50 min
# [2] = biological target: T1, Sc_Rpn4p; test: competition; SPR; 1x and 5x competitor; best competitor on Sequences A, B, C; Biacore 3000 SA chip; HBS: 10 mM HEPES pH 7.4, 150 mM NaCl, 3 mM EDTA, 0.005% P20; room temperature; 10 ul/min, 90 s injection; competitors preincubated 50 min
# [3] = biological target: T1, Sc_Rpn4p; test: SPR; Biacore 3000 SA chip; HBS: 10 mM HEPES pH 7.4, 150 mM NaCl, 3 mM EDTA, 0.005% P20; room temperature; 10 ul/min, 90 s injection; competitors preincubated 50 min
# [4] = biological target: T1, Sc_Rpn4p; test: competition; SPR; 1x and 5x competitor; Biacore 3000 SA chip; HBS: 10 mM HEPES pH 7.4, 150 mM NaCl, 3 mM EDTA, 0.005% P20; room temperature; 10 ul/min, 90 s injection; competitors preincubated 50 min
binder,measurement,setting,value
B1,binding result,[1],binds
B2,binding result,[2],binds
B3,binding result,[3],no binding
B4,binding result,[4],no binding
